Measurements: the DeepSol protein solubility set

Test: soluble on expression in E. coli; label from the status in PepcDB or PDB records

Sequence | soluble on expression in E. coli
MTFIKRLEDAYETLLGNYPAGVSSTSTSKYNEIRKIVSEAFLIGENEVYVTGTSRRISNLDTRFAQGNQRNKHTRMAVAFISIPSVDDSELDELIIRTRNSAITTSSKFCNGEERGTIFDGILLFLVFEGETKVYPLAFLVFENDFELKEKAEELIPGIELKEYPRANQSPAQENNKSAKNEDEESAKSYVVFLDIEEDGSIVEFVEDKDKTYRIGDMIWTASHTNGSSAITRRLEVIEVVENLVVCKIKHKYNEPVDKNSLLKFVNIEQDLISFLDLHPNVQNGSEGFVSGDIVDENATTSSDDLPEDFENN | not soluble
MSLDTFGLIQLAELIYEYCGIDFFKNLSSLESKISERLKELGLSCWEYGGYLRVEPKEWDTLIDLITVNETYFFREENLLEEFQKVILPKYKDRTPNNPLRIWSSACSSGEEPYTLAILSEETGLFETGAVEIIASDIDKKVLEKARRGLYNKKSFSFRTMPKEILDKYFISFGDDYKVKDSIRAMVDFRRVNLLDENKLEKVGEVDIVFCRNVLIYFDTKAINKVINSLYKVLRAGGYLFLGHAETITGMNTGFETIYTPSAFYYRKGERHEGHHHHHH | soluble
MGSDKIHHHHHHDKLDLSPIDYYGSGSYWKTEAQATAYIDGIHKHLRDAAWQHTITFGELRGGRFITGASSDGMGVSNGDIILQNFDETHTGVSKFGDLFGRITNLNLFIARVTDATYLSDEMKNFYLGEVYGLRAFYYFDLYRIYGGVPLRLTADVVEGVIDPNKLYMARSTPKEVMTQIKSDLNKSMEYFGNMNDFDPYKRGKKVYWSKAATECLMGEVYLWTSKVTTGDDVANPADLTIAKTHLESVLNNYNLKMLDDFSQVFNAKNKANDEIIFAIRFLEGEATNSNGTFTYNVGTGSTKNRYQANGEVFGDALDIQNTGNQTYEYNKAVYQNFDDADTRKEATFIASYNKDGKTGELSLYGTHVRKNIGYVNAQGARVYCGDYIFYRLPWVYLTLAEIANMEGDNAAVAKYINLVRKRAYGNAWDETLYAYPETADFTTNELAILHEKDKEFIQEGQRWWDLRRMTLTKGGTPLVFCKEGSLLGDAPILNKSTEAHKLLWPIEKTMLNKDPALEQTPGYK | not soluble
MSPLSSGLLGDLDPTSDRAVFRQIADQLREAIDRGRFREGEKLPSEAELVDHYGVSRMTVRNSFSILQGEGLVHAEHGKGVFVRPRPPVRRLASDRFARRHREQGKSAFIVEADAVGSHPKVDSLEVKEEKASQDISTRLGSVRRVLARRRRYLLDGRPVEFATSYLPLDIARGTQIAEPNPGPGGIYARLEELGHRLDHFEEEIRARMPSPAEVKTLHLAAGVPVIHLIRTAFDTEGRAVEVCDTVMAADAYVLSYQLPAT | not soluble
MERVASVLSALKPTLEKHQLGSWKPAEVDRLCAMLREYGKQERRDKCGTSCLDGAATALASLPSSSSVPPSLPSGGDDVEDENDADEEAFAGVVSEVDRCLSLVRDFLKRRMPFGAVVEPTLPAGTAERQAPQSSSADIISCKRARSLSGEPSSSAPTSNSVHSGAAVVEAPVYAVDAFLYAEGDIEKLVEAKKLAREYCCRCGSTDLGLVEFITHSFSQDQLVYLSCFLLPHLLDVVVASHEASRPLSIVDVGSRLGIVLWACAFALQRGLLAPAQAATTDAAADDAAPEVNLVGIELDATFVKISQDVARRFFAQRRRHAPKLVSVPQPAAANGVDAKLPDVSSSIQLLQSDCFEGAAASALSESSLVVMHNVFEYFCTTAVEHARCWLKLRRLVHRSGQFLVCSPALEVTLGTFTDEVWLQAWQLENGNDARGASTPLAWLASYVEPFDTADVASDFLTMRTLSCEGCDAGSDGDKHHEDHHGRSRDHHHHSSEDDEGDGEEASEMAEQIQRIYVYCVK | not soluble
GSTSAKRIQKELAEITLDPPPNCSAGPKGDNIYEWRSTILGPPGSVYEGGVFFLDITFSPDYPFKPPKVTFRTRIYHCNINSQGVICLDILKDNWSPALTISKVLLSICSLLTDCNPADPLVGSIATQYMTNRAEHDRMARQWTKRYAT | soluble
MINIDPPSGDCPASGGSSTHNIVSESESRLAFKVKSSNNESYRVRPVYGFVDAKGKAKLDVNRLAGPPKEDKLVIQYARVPADETDPKAPFAAGAQQGEVVVKMVAT | not soluble
MRVAIALAKDDATRVYPGPFGHAPRYAIYEAGPSGELVLLEIRENPYAKAHGEEKHAKMRELLRDVDLKVGARFGHKGSLGAFPLADRVEVGPVSLEEALARLKERSSA | soluble
MSLKITNEMQTKAETKIHRTTKVGDPSFQQMVQSQTKQLNQQQFHQLVQQISKQGSKLAQYRSFRELVKFKRMVKSFLDKAVVQGYKLEKSHSFGLQGSRHLSIVKAVDEKLIQLAEDIMDEEKKTVDILGLIGEIKGLLINIYTEGHHHHHH | soluble
MNAYQKTIGRAVTLSGVGIHGGAPASARLLPADADTGILFQRSDIKDSAPVCAHVSQIGATDLCTSLGAREARIDTVEHLMAAISALGIDNLVVEIEGPEVPILDGTSARFIEAVDSVGVVTQDAKRRFIRILKTVRVEAGNSWGEFRPYDGTRFEVEIDFECPLIGRQKFAHDVDEETFRKELSTARTFGFMKDVERLWAAGLALGASLDNSLVIGDDNSIVNADGLRFKDEFVRHKTLDAVGDLALAGLPFIGCFSSYRGGHRLNSEAVKALLSDETAFEIIEALEHHHHHH | soluble
MSLKPLADRIRPENFNEVFGQKHIIGEGKILDRILKSSLVPNMIFYGPPGTGKTTVANIIAKKTNKAFYKLNATTASVKDVREITDSTNTLMGRNGVLLYLDEIQNFNKKQQQSLLEFMENGSITLIASTTENPYFYVYNAILSRSTIFEFKPLESDELMKAVNRAVELIKDELKTTEIIITEDAKKYAVGVSSGDVRKTLNSIEIAVYSTKPNEEGNIFIDLETMKECTQKNVLNFDKDGDNHYDILSAFQKSIRGSDADAAVLYLAMLIKGGDLKSICRRLLVIAAEDIGLAYPQAISIVKACTDSALELGFPEARIPLAEAVILLATSPKSNSAITAVDSALRDLDTINVGSIPDYLRDGHYEGAKKLGRMQDYKYPHSYENNYVKQKYLPSNLENRRYYEYGKNKIEEKCREYWERIKEGHHHHHH | soluble
MGSDKIHHHHHHMDAPYVSMWTSCSGGCSNNMYQLPANYPMKEKRDNEAEHTEGRLSKNERIERQLNSLYDFRFNIVKSRTEYRAANTSGLYQPVTKFALNSFRRKLDVTAGITTSAENIRMILESDFANKVHPIREYLTALPLLNPAGHGYIKKLLNTVQVANPGEWEEYFTKWLVGVVANAMNDTGCQNHTCLVLTGDNQGQFKTWWLDNLCPSSLKNYLFTGKIDPQSKDILTLIAEYLFINIDDQLKELNKQNENALKNLITTPAVKYRRPYDIYIEEYPHLASFMASVNGNEFLTDPTGNRRFLPFEVLHIDKPTAESINMDNVYSEIMYLYRQGVRYWFNDAEIEELHLTNAEFEVQTVEFEMLMQYFEKPTEEEESLFFMTTAQILTCLRDVCPMQLSEKRLGEALRKAGFKRVQKRISNCNYSVYGYRIKPVSIPYTDNDYG | not soluble
MSLRFLADIEEYIGFEIPKIEAPSQEEVARKKPEFLAKLNDRPESKKDKSEELNKDIMKLYFNGGKKKKIRAVDFVGTIAKIDGVSADDIGIITIMDNASYVEILNGKGPHVLKVMKNTTVKGKQLKVNKANKEGHHHHHH | not soluble
LSFQDELMRALNPDVLVVQKRPEGVLPLDELVRRIEGAEPGRKVAFVWVEMDSDKAGRIFYTPPPGQRRGESRWIDPYTGAFVGEPRGEGFFNLMMQLHRFLAMGEYGKQV | not soluble
MRVKEQLLTLRAYVPGKNIEEVKREYGLSKIVKLASNENPFGCSARVTEALTSLASQYALYPDGHAFELRTQVAKHLGVKAEQLLFGSGLDEVIQMISRALLHEGTNVVMANPTFSQYHHHAVIEGAEVREVSLKDGIHDLDAMLQQVDDQTKIVWICNPNNPTGTYVEKQKLLSFLESVPKSALVIMDEAYYEYAGAEDYPQTLPLLEKYENLMVLRTFSKAYGLAAFRIGYAVGNTELIGQLEVARLPFNTSTVAQSVALAALEDQAFLQECVKKNEEGLHQYYAFCKEYNVFYYPSQTNFIFLKLGIPGNEAFERLMKKGYIVRSGAAFGIDDGIRITVGLKEENDEIIELLKELVNEQVQKEETYS | soluble
MKIAMLGSLGNINRIVVPKLVQAGHDVTVISTSPKRQASIEAIGAHAAIGTMTDVDFLSTTFTDKDVVYLMLSGGIGDDPFEGAVAQAKIWKQAIENAGVTNVVNLSSIGADADEVAGSLHAYNLIEHELRQLDGVNLAFVRPTGFYANLFGNLATIKAEHKIYSSTPAASAQKYVAPEDIASVVYPLIDHTPAGITVKYAFSDTFTGDQFVADLRDALNMPDLQWVQISDEQYQANLTNHGVPVKIAASLVQTSRYQREPEGLYADLNASDTSAGQVKLADFVRTFVVAYNSEGGYQSHTIAD | not soluble
MWMKDPVARPLSPTRLQPALPPEAQSVPELEEVARVLAEIPRPLKRRGSMEQAPAVALPPTHKKQYQQIISRLFHRHGGPGPGGRSQSCPPSLRDLRPGQGPLLLPHQLPFHRPAPSQSSPPEQPQSMEMRSVLRKAGSPRKARRARLNPLVLLLDAALTGELEVVQQAVKEMNDPSQPNEEGITALHNAICGANYSIVDFLITAGANVNSPDSHGWTPLHCAASCNDTVICMALVQHGAAIFATTLSDGATAFEKCDPYREGYADCATYLADVEQSMGLMNSGAVYALWDYSAEFGDELSFREGESVTVLRRDGPEETDWWWAALHGQEGYVPRNYFGLFPRVKPQRSKV | soluble
MTKLFLPNTQATQQLGITLGKNLTAGSVILLEGDLGAGKTTLVQGIGKGLGINESIVSPTFTLINEYIEGRIPLYHLDLYRLKPQEVTGLNLESYWEGIEVTPGIVAIEWAERMPYLPDSYFRVCLKSGEDGDRQLEITAVNCQMIDNLISS | not soluble
KKLCGYLSKFGGKGPIRGWKSRWFFYDERKCQLYYSRTAQDANPLDSIDLSSAVFDCKADAEEGIFEIKTPSRVITLKAATKQAMLYWLQQLQMKRWEFHNSPPAP | soluble
MYNETPIKRRPSTRIYVGNVPIGDGAPIAVQSMTNTKTTDVEATVAQIRALEKVGADIVRVSVPTMDAAEAFKLIKQSVSVPLVADIHFDYRIALKVAEYGVDCLRINPGNIGNEERIRSVVECARDKNIPIRIGVNGGSLEKDLMDKYKEPTPEALLESAMRHVDILDRLNFDQFKVSVKASDVFLAVESYRLLAKQIRQPLHLGITEAGGARAGAVKSAVGLGMLLAEGIGDTLRISLAADPVEEIKVGFDILKSLRIRSRGINFIACPSCSRQEFDVISTVNELERRLEDVTTAMDVSIIGCVVNGPGEALVSHIGLTGGHRKSGYYDEGERQKERFDNDNLVDSLEAKIRAKASQMANRIQVKDTTEAAALEHHHHHH | not soluble
MDKFKSMTELKELTKEGKDWEIECENRSSIVTILALHGGGIEPATTELAYTIAHCGDYNYFSFKGMRSKGNNELHVTSTHYDDQIALDLVRGSQRTVAIHGCEGNESVAYIGGSDDRLIELITESLEDIGISVREAPHHISGTQENNIVNMTQTQGGVQLELTAQLRKELFKNRKSSRKNRENKDNWDDLMYDFADAMKKAIERALEHHHHHH | soluble
MAEVESFSLDHTKVKAPYVRLAGRKALAGGVVEKYDLRLAQPNREALPTGALHTLEHLLAGYLRDHLPGVIDLSPMGCRTGFYLVVEGPVGEEKVLEAFAQALKDVLAHEGEVPGASFRECGNYRDHDLPGAKAWAEKVLKAGLRVQATVPLEAR | soluble
MSGFIPGSTTGSMLTAISDTHGTDNHRLTGRTLDAVREADHVLHAGDFMTEQVLDAIDAESDELTGVVGNNDRPAVRARLSDVATVSWEELTIVVVHGHEHTETALGMLARQENADIVVVGHSHKPVLTDFGGWTLVNPGSYADPRRYQPAHAELDVMAGDVRVRLRSPDGTPISTTIVERLEHHHHHH | not soluble
